Data set [1] concerns the target T1, HypD (Escherichia coli, UniProt P24192, C41A).
T1 construct: Strep-tagged HypD (plasmid pIBA5hypDWT), [4Fe-4S] protein, overproduced and anaerobically purified from E. coli BEF314 (delta hypB-E)
The data set can be described thus: HPLC (ZIC-HILIC) ADP formation, specific activity. Type of data set: biochemical. As to conditions: 50 mM HEPES, 2 mM MgCl2, pH 7.4, 37 °C, 500 μM ATP; protein alone.

Substrate in data set [2]: Nc1ncnc2c1ncn2[C@@H]1O[C@H](COP(=O)(O)OP(=O)(O)OP(=O)(O)O)[C@@H](O)[C@H]1O
Kind of data set: HPLC (ZIC-HILIC) ADP formation, Michaelis-Menten fit. In kind it is biochemical, Escherichia coli. As to conditions: 50 mM HEPES, 2 mM MgCl2, pH 7.4, 37 °C, protein alone. The source says:
HPLC (ZIC-HILIC) ADP formation, Michaelis-Menten fit on HypC

Substrate in data set [3]: Nc1ncnc2c1ncn2[C@@H]1O[C@H](COP(=O)(O)OP(=O)(O)OP(=O)(O)O)[C@@H](O)[C@H]1O
The data set is described as above. In kind it is biochemical, Escherichia coli. As to conditions: 50 mM HEPES, 2 mM MgCl2, pH 7.4, 37 °C, as-isolated complex. The source says: HPLC (ZIC-HILIC) ADP formation, Michaelis-Menten fit on HypC-HypD complex

Substrate in data set [4]: Nc1ncnc2c1ncn2[C@@H]1O[C@H](COP(=O)(O)OP(=O)(O)OP(=O)(O)O)[C@@H](O)[C@H]1O
The description is as above. In kind it is biochemical, Escherichia coli. As to conditions: 50 mM HEPES, 2 mM MgCl2, pH 7.4, 37 °C, protein alone. The source says: HPLC (ZIC-HILIC) ADP formation, Michaelis-Menten fit on HypD
This is another data set of the same source.

Substrate in data set [5]: Nc1ncnc2c1ncn2[C@@H]1O[C@H](COP(=O)(O)OP(=O)(O)OP(=O)(O)O)[C@@H](O)[C@H]1O
Described as above. In kind it is biochemical, Escherichia coli. To be noted: 50 mM HEPES, 2 mM MgCl2, pH 7.4, 37 °C, as-isolated complex. The source says: HPLC (ZIC-HILIC) ADP formation, Michaelis-Menten fit on HybG-HypD complex
The source holds these as a separate data set.

Substrate in data set [6]: Nc1ncnc2c1ncn2[C@@H]1O[C@H](COP(=O)(O)OP(=O)(O)OP(=O)(O)O)[C@@H](O)[C@H]1O
The data set is described as above. In kind it is biochemical, Escherichia coli. As to conditions: 50 mM HEPES, 2 mM MgCl2, pH 7.4, 37 °C, protein alone. The source says:
HPLC (ZIC-HILIC) ADP formation, Michaelis-Menten fit on HybG
The source holds these as a separate data set.

T1 sequence (P24192 whole entry C41A): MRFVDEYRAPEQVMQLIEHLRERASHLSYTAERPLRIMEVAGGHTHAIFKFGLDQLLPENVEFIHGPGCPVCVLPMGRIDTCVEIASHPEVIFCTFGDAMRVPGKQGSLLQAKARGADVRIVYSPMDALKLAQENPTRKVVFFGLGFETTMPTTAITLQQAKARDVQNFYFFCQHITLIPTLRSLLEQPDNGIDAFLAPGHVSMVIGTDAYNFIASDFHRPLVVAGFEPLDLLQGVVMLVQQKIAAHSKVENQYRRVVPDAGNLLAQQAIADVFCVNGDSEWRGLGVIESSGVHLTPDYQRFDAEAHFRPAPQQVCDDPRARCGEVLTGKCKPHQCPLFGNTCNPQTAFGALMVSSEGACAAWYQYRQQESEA

On to `Nc1ncnc2c1ncn2[C@@H]1O[C@H](COP(=O)(O)OP(=O)(O)OP(=O)(O)O)[C@@H](O)[C@H]1O` [ATP], for which the “HPLC (ZIC-HILIC) ADP formation, specific activity” value in data set [1] is listed as “The HypDC41A variant on its own had an ATPase activity”.

B1: HypC (Escherichia coli K-12) (protein)
chain: CIGVPGQIRTIDGNQAKVDVCGIQRDVDLTLVGSCDENGQPRVGQWVLVHVGFAMSVINEAEARDTLDALQNMFDVEPDVGALLYGEEK
notes: Strep-tagged HypC (plasmid pIBA3hypCStrep), anaerobically purified from E. coli BEF314 (delta hypB-E)
As a reminder, the Km is the concentration of substrate that gives half-maximal velocity. For orientation: Vmax means the rate approached at saturating substrate. B1: in data set [2], the Km is 235.72 ± 71.15 µM and the Vmax was 0.234 µmol/min/mg.

B2: HypC-HypD complex (Escherichia coli K-12) (protein)
chain 1: MRFVDEYRAPEQVMQLIEHLRERASHLSYTAERPLRIMEVCGGHTHAIFKFGLDQLLPENVEFIHGPGCPVCVLPMGRIDTCVEIASHPEVIFCTFGDAMRVPGKQGSLLQAKARGADVRIVYSPMDALKLAQENPTRKVVFFGLGFETTMPTTAITLQQAKARDVQNFYFFCQHITLIPTLRSLLEQPDNGIDAFLAPGHVSMVIGTDAYNFIASDFHRPLVVAGFEPLDLLQGVVMLVQQKIAAHSKVENQYRRVVPDAGNLLAQQAIADVFCVNGDSEWRGLGVIESSGVHLTPDYQRFDAEAHFRPAPQQVCDDPRARCGEVLTGKCKPHQCPLFGNTCNPQTAFGALMVSSEGACAAWYQYRQQESEA
chain 2: CIGVPGQIRTIDGNQAKVDVCGIQRDVDLTLVGSCDENGQPRVGQWVLVHVGFAMSVINEAEARDTLDALQNMFDVEPDVGALLYGEEK
notes: heterodimer, HypC Strep-tagged (pT7-7hypD-hypCStrep), anaerobically co-purified from E. coli MC4100 or BEF314
Consider B2, for which, in data set [3], the Michaelis-Menten constant (Km) came to 143.48 ± 55.10 µM and the Vmax was 0.995 µmol/min/mg.

B3: HypD (Escherichia coli K-12) (protein)
chain: MRFVDEYRAPEQVMQLIEHLRERASHLSYTAERPLRIMEVCGGHTHAIFKFGLDQLLPENVEFIHGPGCPVCVLPMGRIDTCVEIASHPEVIFCTFGDAMRVPGKQGSLLQAKARGADVRIVYSPMDALKLAQENPTRKVVFFGLGFETTMPTTAITLQQAKARDVQNFYFFCQHITLIPTLRSLLEQPDNGIDAFLAPGHVSMVIGTDAYNFIASDFHRPLVVAGFEPLDLLQGVVMLVQQKIAAHSKVENQYRRVVPDAGNLLAQQAIADVFCVNGDSEWRGLGVIESSGVHLTPDYQRFDAEAHFRPAPQQVCDDPRARCGEVLTGKCKPHQCPLFGNTCNPQTAFGALMVSSEGACAAWYQYRQQESEA
notes: Strep-tagged HypD (plasmid pIBA5hypDWT), [4Fe-4S] protein, overproduced and anaerobically purified from E. coli BEF314 (delta hypB-E)
As to B3, in data set [4], the Km was determined as 364.48 ± 100.16 µM and the Vmax stood at 0.398 µmol/min/mg.

B4: HybG-HypD complex (Escherichia coli K-12) (protein)
chain 1: MRFVDEYRAPEQVMQLIEHLRERASHLSYTAERPLRIMEVCGGHTHAIFKFGLDQLLPENVEFIHGPGCPVCVLPMGRIDTCVEIASHPEVIFCTFGDAMRVPGKQGSLLQAKARGADVRIVYSPMDALKLAQENPTRKVVFFGLGFETTMPTTAITLQQAKARDVQNFYFFCQHITLIPTLRSLLEQPDNGIDAFLAPGHVSMVIGTDAYNFIASDFHRPLVVAGFEPLDLLQGVVMLVQQKIAAHSKVENQYRRVVPDAGNLLAQQAIADVFCVNGDSEWRGLGVIESSGVHLTPDYQRFDAEAHFRPAPQQVCDDPRARCGEVLTGKCKPHQCPLFGNTCNPQTAFGALMVSSEGACAAWYQYRQQESEA
chain 2: MCIGVPGQVLAVGEDIHQLAQVEVCGIKRDVNIALICEGNPADLLGQWVLVHVGFAMSIIDEDEAKATLDALRQMDYDITSA
notes: heterodimer, HybG Strep-tagged (hypDEFhybGStrep plasmid), anaerobically co-purified from E. coli MC4100; small amounts of HypE occasionally co-purify
Turning to B4, in data set [5], the Km is 34.78 ± 8.77 µM and the maximum rate (Vmax) is 1.42 µmol/min/mg.

B5: HybG (Escherichia coli K-12) (protein)
chain: MCIGVPGQVLAVGEDIHQLAQVEVCGIKRDVNIALICEGNPADLLGQWVLVHVGFAMSIIDEDEAKATLDALRQMDYDITSA
notes: Strep-tagged HybG (plasmid pIBA3hybGWT), anaerobically purified from E. coli BEF314 (delta hypB-E)
As to B5, in data set [6], the Michaelis constant (Km) amounted to 475.67 ± 29.91 µM and the Vmax stood at 0.56 µmol/min/mg.

(Values after paper PMC6886295, “The iron–sulfur‐containing HypC‐HypD scaffold complex of the [NiFe]‐hydrogenase maturation machinery is an ATPase” (FEBS Open Bio, 2019).)
